A word on the Kd: it is the concentration at which binding is half-saturated. A lower Kd goes with tighter binding. A word on the koff: it is the rate constant with which the complex falls apart. A lower koff goes with a long-lived complex. For orientation: kon means a measure of how fast the partners come together. High values mean faster complex formation, low ones slower complex formation. What is called IC50 is the concentration needed to halve the response being measured. What is called EC50 is the concentration needed to bring the measured effect to its halfway point. Lower therefore signals higher potency in that assay.

The text below walks through data of US20260184782A1 (TWIST BIOSCIENCE, published 2026).

The target of experiment [1] is T1, TIGIT (UniProt Q495A1 22-141, limits assumed).
T1 construct: also called T cell immunoreceptor with Ig and ITIM domains; hTIGIT
T1 sequence (looked up): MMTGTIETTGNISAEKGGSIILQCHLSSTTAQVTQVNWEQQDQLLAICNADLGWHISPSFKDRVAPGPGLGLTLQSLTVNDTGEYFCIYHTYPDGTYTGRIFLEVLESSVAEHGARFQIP
The experiment in a line: SPR (Carterra).

Experiment [2] has as its target T1, TIGIT. Briefly: TIGIT:CD155 blockade assay, competitor CD155.
For another experiment, the target named is T2, TIGIT on PBMCs (UniProt Q495A1 22-244, limits assumed).
T2 sequence (looked up): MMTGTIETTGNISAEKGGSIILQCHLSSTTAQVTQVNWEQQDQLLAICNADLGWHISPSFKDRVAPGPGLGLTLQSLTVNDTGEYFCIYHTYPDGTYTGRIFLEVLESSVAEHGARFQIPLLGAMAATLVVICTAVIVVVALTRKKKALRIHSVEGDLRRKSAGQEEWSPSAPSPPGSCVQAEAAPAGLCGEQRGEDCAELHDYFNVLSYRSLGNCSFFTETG
Briefly: cell-based or functional assay.

Experiment [3] concerns the target T3, human TIGIT-Fc (human, UniProt Q495A1 22-141, limits assumed).
T3 construct: not shown: Fc; not described
T3 sequence (looked up): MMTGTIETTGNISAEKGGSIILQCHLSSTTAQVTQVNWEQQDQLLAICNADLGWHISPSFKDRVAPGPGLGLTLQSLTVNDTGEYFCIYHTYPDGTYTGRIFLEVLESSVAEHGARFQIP
Briefly: CD155 competition ELISA, titration. The procedure: (§1) TIGIT/CD155 inhibition of VHH-Fcs were assessed using an ELISA assay (Table 10B). Briefly, human TIGIT-Fc was coated on a plate & then incubated with VHH-Fcs and human CD155-biotin. Bound CD155-biotin was detected using a streptavidin-HRP conjugate visualized with TMB. Strong inhibitors from the single point screen were titrated to determine EC50 (Table 10C).
In general terms: ELISA stands for enzyme-linked immunosorbent assay.

The target in experiment [4] is T3, human TIGIT-Fc. The experiment in a line: CD155 competition ELISA, single point. The procedure: as §1
For experiment [5], the target named is T4, TIGIT (UniProt Q495A1 22-141, limits assumed).
T4 construct: construct not described; also called T cell immunoreceptor with Ig and ITIM domains
T4 sequence (looked up): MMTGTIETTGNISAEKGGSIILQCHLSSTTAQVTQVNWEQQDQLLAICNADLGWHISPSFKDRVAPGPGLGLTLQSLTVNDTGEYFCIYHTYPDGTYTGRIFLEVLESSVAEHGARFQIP
The experiment in a line: Carterra SPR, VHH-Fc.

B1: TIGIT-471-011 (antibody, V domains shown)
VH: EVQLLESGGGLVQPGGSLRLSCAASGFTFSNYGVSWVRQAPGKGLEWVSSIDWHGWVTYYADSVKGRFTISRDNSKNTLYLQMNSLRAEDTAVYYCVKNALRFDYWGQGTLVTVSS
VL: DIQMTQSPSSLSASVGDRVTITCSASQDINKYLNWYQQKPGKAPKLLIYHTSRLQSGVPSRFSGSGSGTDFTLTISSLQPEDFATYYCQQVVWRPFTFGQGTKVEIK
notes: Variable domains only
As for B1, in the experiment with TIGIT [1], the Kd is 7290 nM, the RU was determined as 1080 RU, the koff was 0.269 s⁻¹ and the on-rate (kon) was 36900 M⁻¹ s⁻¹. Moreover, the IC50 with TIGIT [2] worked out at 14.4 nM.

B2: TIGIT-471-027 (antibody, V domains shown)
VH: EVQLLESGGGLVQPGGSLRLSCAASGFTFSNYGVSWVRQAPGKGLEWVSWISPHGALTYYADSVKGRFTISRDNSKNTLYLQMNSLKAEDTAVYYCAKGRRRFDYWGQGTLVTVSS
VL: DIQMTQSPSSLSASVGDRVTITCRASQTISSYLNWYQQKPGKAPKLLIYENNNRPSGVPSRFSGSGSGTDFTLTISSLQPEDFATYYCQQSYIIPPTFGQGTNVEIK
notes: Variable domains only
On to B2, for which, in the experiment with TIGIT [1], binding was put at a Kd of 60 nM, the RU came out at 57.5 RU, the koff stood at 0.00926 s⁻¹ and the kon stood at 154000 M⁻¹ s⁻¹. Further, the IC50 in the experiment with TIGIT [2] was 13.5 nM.

B3: TIGIT-471-035 (antibody, V domains shown)
VH: EVQLLESGGGLVQPGGSLRLSCAASGFTFNAYPMTWVRQAPGKGLEWVSAITGSGGSTYYADSVKGRFTISRDNSKNTLYLQMNSLRAEDTAVYYCARVWRNHLDYWGQGTLVTVSS
VL: DIQMTQSPSSLSASVGDRVTITCSGDKLGHTYTSWYQQKPGKAPKLLIYRASTLASGVPSRFSGSGSGTDFTLTISSLQPEDFATYYCQQGYTLPWTFGQGTKVEIK
notes: Variable domains only
On to B3, for which, in the experiment with TIGIT [1], the Kd is 395 nM, the RU turned out to be 93.7 RU, the koff amounted to 0.0484 s⁻¹ and the kon stood at 123000 M⁻¹ s⁻¹. The molecule also showed an IC50 in the experiment with TIGIT [2] of 3.2 nM.

B4: TIGIT-SC63 (Fc fusion)
VHH: EVQLVESGGGLVQPGGSLRLSCAASGRAIGSYGMGWFRQAPGKEREFVATISVSGVYTYYADSVKGRFTISADNSKNTAYLQMNSLKPEDTAVYYCARATPGGVVPWGQGTLVTVSS
notes: VHH-Fc
For B4, the “T-cell activation EC50” value in the experiment with TIGIT on PBMCs worked out at 88.1 nM. Besides, the EC50 in the experiment with human TIGIT-Fc [3] was 135 nM. The “OD (450 nm)” value in the experiment with human TIGIT-Fc [4] amounted to 0.0781 OD.

B5: TIGIT-SC41 (Fc fusion)
VHH: EVQLVESGGGLVQPGGSLRLSCAASGMTTIGPMGWFRQAPGKEREFVASIAWGDGNTYYADSVKGRFTISADNSKNTAYLQMNSLKPEDTAVYYCVRGGSRTLWGQGTLVTVSS
notes: VHH-Fc
As for B5, the “T-cell activation EC50” value with TIGIT on PBMCs was found to be 1.83 nM. Also, a half-maximal response in the experiment with human TIGIT-Fc [3] (EC50) required 10 nM. In the experiment with human TIGIT-Fc [4], the “OD (450 nm)” value worked out at 0.0921 OD.

B6: TIGIT-SC58 (Fc fusion)
VHH: EVQLVESGGGLVQPGGSLRLSCAASGFTLGYYVMGWFRQAPGKEREFVATINWSGTLTSYADSVKGRFTISADNSKNTAYLQMNSLKPEDTAVYYCARWVGPKYYFDYWGQGTLVTVSS
notes: VHH-Fc
Take B6: the “T-cell activation EC50” value with TIGIT on PBMCs amounted to 2.08 nM. Besides, the EC50 with human TIGIT-Fc [3] turned out to be 0.303 nM. Further, the “OD (450 nm)” value in the experiment with human TIGIT-Fc [4] turned out to be 0.0846 OD.

B7: Tiragolumab (antibody, V domains shown)
VH: EVQLQQSGPGLVKPSQTLSLTCAISGDSVSSNSAAWNWIRQSPSRGLEWLGKTYYRFKWYSDYAVSVKGRITINPDTSKNQFSLQLNSVTPEDTAVFYCTRESTTYDLLAGPFDYWGQGTLVTVSS
VL: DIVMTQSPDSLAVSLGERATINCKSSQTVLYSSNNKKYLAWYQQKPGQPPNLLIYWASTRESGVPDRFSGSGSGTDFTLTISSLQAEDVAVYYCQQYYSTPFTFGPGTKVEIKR
For B7, the “T-cell activation EC50” value with TIGIT on PBMCs was found to be 13.5 nM. This molecule also returned an EC50 in the experiment with human TIGIT-Fc [3] of 0.57 nM. The “OD (450 nm)” value with human TIGIT-Fc [4] was 0.0858 OD.

B8: TIGIT-SC24 (Fc fusion)
VHH: EVQLVESGGGLVQPGGSLRLSCAASGFTFDRSWMGWFRQAPGKEREVVASITSGGSTYYADSVKGRFTISADNSKNTAYLQMNSLKPEDTAVYYCAADVWYGSTWRNWGQGTLVTVSS
notes: VHH-Fc
As for B8, the “T-cell activation EC50” value in the experiment with TIGIT on PBMCs amounted to 7.53 nM. Besides, the EC50 with human TIGIT-Fc [3] was 0.423 nM. In addition, the “OD (450 nm)” value in the experiment with human TIGIT-Fc [4] amounted to 0.0781 OD.

B9: TIGIT-471-019 (antibody, V domains shown)
VH: EVQLLESGGGLVQPGGSLRLSCAASGFTFSNYGVSWVRQAHGKGLEWVVYINPSRGYTYYADSVKGRFSISRDNSKNTLYLQMNSLRAEDTAVYYCARSYGGGFDYWGQGTLVTVSS
VL: DIQMTQSPSSLSASVGDRVTITCRASQTIERRLNWYQQKPGKAPKLLIYDASSLHTGVPSRFSGSGSGTDFTLTISSLQPEDFATYYCQQSYIIPPTFGQGTKVEIK
notes: Variable domains only
In the experiment with TIGIT [1], B9 yielded a Kd of 164 nM, an RU of 156 RU, a koff of 0.0565 s⁻¹ and a kon of 344000 M⁻¹ s⁻¹. For the same molecule, the IC50 with TIGIT [2] worked out at 13.6 nM.

B10: TIGIT-471-038 (antibody, V domains shown)
VH: EVQLLESGGGLVQPGGSLRLSCAASGFTFSNYGVSWVRQAPGKGLEWVGYINPSRGYTYYADSVKGRFTISRDNSKNTLYLQMNSLRAEDTAVYYCARSYGGGFDYWGQGTLVTVSS
VL: DIQMTQSPSSLSASVGDRVTITCRASQTIERRLNWYQQKPGKAPKLLIYDASSLHTGVSSRFSGSGSGTYFTLTISSLQAEDFATYYCQQSYIIPPTFGQGTKVEIK
notes: Variable domains only
In the experiment with TIGIT [1], B10 came in with a Kd of 55.4 nM, an RU of 78 RU, a koff of 0.0122 s⁻¹ and a kon of 221000 M⁻¹ s⁻¹. Moreover, the IC50 in the experiment with TIGIT [2] was 5.9 nM.

B11: TIGIT-471-048 (antibody, V domains shown)
VH: EVQLLESGGGLVQPGGSLRLSCAASGFTFSNYGVSWVRQAPGKGLEWVGYINPSRGYTYYADSVKGRFTISRDNSKNTLYLQMNSLRAEDTAVYYCARSYGGGFDYWGQGTLVTVSS
VL: DIQMTQSPSSLSASVGDRVTITCGASQTIERRLNWYQQKPGKAPKLLIYDASSLHTGVPSRISGSGSGTDFTLTISSLQPEHFATYYCQQSYIIPPTFGQGTKVEIK
notes: Variable domains only
Take B11: in the experiment with TIGIT [1], the Kd was 51.4 nM, the RU amounted to 122 RU, the off-rate constant (koff) was 0.0192 s⁻¹ and the kon amounted to 373000 M⁻¹ s⁻¹. The same molecule had an IC50 with TIGIT [2] of 9.8 nM.

B12: TIGIT-SC97 (Fc fusion)
VHH: EVQLVESGGGLVQPGGSLRLSCAASGTAASFNPMGWFRQAPGKEREFVAAISWSGGSTNYADSVKGRFTISADNSKNTAYLQMNSLKPEDTAVYYCVTYSAYDFRNAWGQGTLVTVSS
notes: VHH-Fc
As for B12, the “T-cell activation EC50” value with TIGIT on PBMCs was 7.11 nM. Moreover, the EC50 with human TIGIT-Fc [3] worked out at 0.971 nM. The “OD (450 nm)” value in the experiment with human TIGIT-Fc [4] worked out at 0.111 OD.

B13: TIGIT-29-01 VHH-Fc (Fc fusion)
chain: EVQLVESGGGLVQAGGSLRLSCAASGRTFSNYAMGWFRQAPGKEREFVAAITWSGTRTDYADSVKGRFTISADNAKNTVYLQMNSLKPEDTAVYYCAAAAWTIYEYDYWGQGTQVTVSSGGGGSEPKSSDKTHTCPPCPAPELLGGPSVFLFPPKPKDTLMISRTPEVTCVVVDVSHEDPEVKFNWYVDGVEVHNAKTKPREEQYNSTYRVVSVLTVLHQDWLNGKEYKCKVSNKALPAPIEKTISKAKGQPREPQVYTLPPSREEMTKNQVSLTCLVKGFYPSDIAVEWESNGQPENNYKTTPPVLDSDGSFFLYSLTVDKSRWQQGNVFSCSVMHEALHNHYTQKSLSLSPG
notes: also called 29-1
B13: in the experiment with TIGIT [5], the Kd was found to be 68 nM and the kon was found to be 1e+09 M⁻¹ s⁻¹.
